Numbering of substitutions follows the chain as printed.
B1: MS_M103205H795-SG1/M103202L889-SK1 (antibody, human IgG1, kappa)
heavy: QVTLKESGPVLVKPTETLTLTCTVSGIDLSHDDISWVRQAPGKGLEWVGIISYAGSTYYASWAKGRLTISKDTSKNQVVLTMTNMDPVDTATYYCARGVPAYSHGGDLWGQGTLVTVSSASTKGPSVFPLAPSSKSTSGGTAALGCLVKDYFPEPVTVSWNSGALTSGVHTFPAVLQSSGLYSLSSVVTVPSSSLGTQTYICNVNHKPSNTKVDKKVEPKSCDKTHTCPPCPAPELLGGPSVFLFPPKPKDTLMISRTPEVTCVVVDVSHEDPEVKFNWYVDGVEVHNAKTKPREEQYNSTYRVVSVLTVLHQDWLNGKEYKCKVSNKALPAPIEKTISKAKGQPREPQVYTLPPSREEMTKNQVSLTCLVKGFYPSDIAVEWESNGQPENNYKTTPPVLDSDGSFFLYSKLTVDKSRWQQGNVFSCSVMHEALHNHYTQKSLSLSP
light: DIVMTQSPATLSLSPGERATLSCTSSQSVYHANWLSWFQQKPGQPPKLLIYWASTLAYGVPSRFSGSGSGTDFTLTISSLQPEDAATYYCAGGYGGGRYAFGQGTKVEIKRTVAAPSVFIFPPSDEQLKSGTASVVCLLNNFYPREAKVQWKVDNALQSGNSQESVTEQDSKDSTYSLSSTLTLSKADYEKHKVYACEVTHQGLSSPVTKSFNRGEC
notes: Parent antibody; also called MS1032LO06-SG1
B2: M103205H795-MY229/M103202L889-SK1 (antibody, human IgG1, kappa)
heavy: QVTLKESGPVLVKPTETLTLTCTVSGIDLSHDDISWVRQAPGKGLEWVGIISYAGSTYYASWAKGRLTISKDTSKNQVVLTMTNMDPVDTATYYCARGVPAYSHGGDLWGQGTLVTVSSASTKGPSVFPLAPSSKSTSGGTAALGCLVKDYFPEPVTVSWNSGALTSGVHTFPAVLQSSGLYSLSSVVTVPSSSLGTQTYICNVNHKPSNTKVDKKVEPKSCDKTHTCPPCPAPELLGYPSVFLFPPKPKDTLMISRTPEVTCVVVDVSDEDPEVKFNWYVDGVEVHNAKTKPREELYNSTYRVVSVLTVLHQDWLNGKEYKCKVSNKALPKPIEKTISKAKGQPREPQVYTLPPSREEMTKNQVSLTCLVKGFYPSDIAVEWESNGQPENNYKTTPKVLDSDGSFFLYSKLTVDKSRWQQGNVFSCSVMHEALHNHYTQKSLSLSP
light: B1 light
B3: M103205H795-MY269/M103202L889-SK1 (antibody, human IgG1, kappa)
heavy: B2 heavy with G238M, Y239G, L297Q
light: B1 light
B4: M103205H795-MY273/M103202L889-SK1 (antibody, human IgG1, kappa)
heavy: B2 heavy with G238L, Y239G, L297Q
light: B1 light
B5: M103205H795-MY274/M103202L889-SK1 (antibody, human IgG1, kappa)
heavy: B2 heavy with G238T, Y239G, L297Q
light: B1 light
B6: M103205H795-MY292/M103202L889-SK1 (antibody, human IgG1, kappa)
heavy: B2 heavy with K398M
light: B1 light
B7: M103205H795-MY219/M103202L889-SK1 (antibody, human IgG1, kappa)
heavy: B2 heavy with L297Q, K398P
light: B1 light
B8: M103205H795-MY272/M103202L889-SK1 (antibody, human IgG1, kappa)
heavy: B2 heavy with G238Q, Y239G, L297Q
light: B1 light
B9: M103205H795-MY281/M103202L889-SK1 (antibody, human IgG1, kappa)
heavy: B2 heavy with G238Q, Y239G, K398P
light: B1 light
B10: M103205H795-MY242/M103202L889-SK1 (antibody, human IgG1, kappa)
heavy: B2 heavy with Y239G, P240I, L297Q
light: B1 light
B11: M103205H795-MY321/M103202L889-SK1 (antibody, human IgG1, kappa)
heavy: B2 heavy with G238H, Y239G, L297Q, K398M
light: B1 light
B12: M103205H795-MY310/M103202L889-SK1 (antibody, human IgG1, kappa)
heavy: B2 heavy with G238T, Y239G, D270E, L297Q, K328T, K398P
light: B1 light
B13: M103205H795-MY280/M103202L889-SK1 (antibody, human IgG1, kappa)
heavy: B2 heavy with G238V, Y239G, K398P
light: B1 light
B14: M103205H795-MY308/M103202L889-SK1 (antibody, human IgG1, kappa)
heavy: B2 heavy with G238T, Y239G, D270E, L297Q, K398P
light: B1 light
B15: M103205H795-MY311/M103202L889-SK1 (antibody, human IgG1, kappa)
heavy: B2 heavy with G238T, Y239G, D270E, K398P
light: B1 light
B16: M103205H795-MY271/M103202L889-SK1 (antibody, human IgG1, kappa)
heavy: B2 heavy with G238V, Y239G, L297Q
light: B1 light
B17: M103205H795-MY312/M103202L889-SK1 (antibody, human IgG1, kappa)
heavy: B2 heavy with G238T, Y239G, D270E, L297Q, K328T, K398M
light: B1 light
B18: M103205H795-MY209/M103202L889-SK1 (antibody, human IgG1, kappa)
heavy: B2 heavy with G238N, Y239G, K328T, K398P
light: B1 light
B19: M103205H795-MY213/M103202L889-SK1 (antibody, human IgG1, kappa)
heavy: B2 heavy with G238N, Y239G, L297Q
light: B1 light
B20: M103205H795-MY293/M103202L889-SK1 (antibody, human IgG1, kappa)
heavy: B2 heavy with D270E
light: B1 light
B21: M103205H795-MY227/M103202L889-SK1 (antibody, human IgG1, kappa)
heavy: B2 heavy with L297Q
light: B1 light
B22: M103205H795-MY228/M103202L889-SK1 (antibody, human IgG1, kappa)
heavy: B2 heavy with K398P
light: B1 light
B23: M103205H795-MY309/M103202L889-SK1 (antibody, human IgG1, kappa)
heavy: B2 heavy with G238T, Y239G, D270E, L297Q, K398M
light: B1 light
B24: M103205H795-MY143/M103202L889-SK1 (antibody, human IgG1, kappa)
heavy: B2 heavy with G238S, Y239G, D270E, L297Q, K332A, K398M
light: B1 light
B25: M103205H795-MY318/M103202L889-SK1 (antibody, human IgG1, kappa)
heavy: B2 heavy with G238L, Y239G, D270E, L297Q, K328T, K398M
light: B1 light
B26: M103205H795-MY276/M103202L889-SK1 (antibody, human IgG1, kappa)
heavy: B2 heavy with G238I, Y239G, L297Q
light: B1 light
B27: M103205H795-MY278/M103202L889-SK1 (antibody, human IgG1, kappa)
heavy: B2 heavy with G238M, Y239G, K398P
light: B1 light
B28: M103205H795-MY279/M103202L889-SK1 (antibody, human IgG1, kappa)
heavy: B2 heavy with G238H, Y239G, K398P
light: B1 light
B29: M103205H795-MY142/M103202L889-SK1 (antibody, human IgG1, kappa)
heavy: B2 heavy with G238E, Y239G, D270E, L297Q, K332A, K398M
light: B1 light
B30: M103205H795-MY270/M103202L889-SK1 (antibody, human IgG1, kappa)
heavy: B2 heavy with G238H, Y239G, L297Q
light: B1 light

Target: T1, cynomolgus monkey FcγRIIIaS extracellular domain, C-terminal His-tag (cynomolgus monkey, UniProt A3RFZ7 21-206 (rhesus entry))
T1 construct: also called cyno FcγRIIIaS; cynoFcγRIIIaS; not shown: His-tag added to C-terminus
T1 sequence (A3RFZ7 21-206): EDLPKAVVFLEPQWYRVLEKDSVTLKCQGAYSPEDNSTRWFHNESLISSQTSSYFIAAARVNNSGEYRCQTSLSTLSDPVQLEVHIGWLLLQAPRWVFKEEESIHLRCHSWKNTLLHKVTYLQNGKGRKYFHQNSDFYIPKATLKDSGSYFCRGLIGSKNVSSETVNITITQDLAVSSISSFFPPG
Test: SPR (Biacore), KD of SG1 / KD of variant;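 also: relative to parent M103205H795-SG1 carrying the SG1 human heavy chain constant region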

First: B1
Second: B2
The “KD fold (SG1 = 1)” value of the first is higher: 1 fold for the first, 0.09 fold for the second.

First: B3
Second: B4
The “KD fold (SG1 = 1)” value of the first is higher: 1.64 fold for the first, 0.21 fold for the second.

Compared with B5, B6 is lower in “KD fold (SG1 = 1)” value: 0.58 fold for the first, 0.05 fold for the second.

Going from B7 to B8, the “KD fold (SG1 = 1)” value rises from 0.06 fold to 1.24 fold.

Compared with B9, B10 is higher in “KD fold (SG1 = 1)” value: 0.49 fold for the first, 0.68 fold for the second.

Going from B11 to B12, the “KD fold (SG1 = 1)” value falls from 0.33 fold to 0.2 fold.

Compared with B13, B14 is lower in “KD fold (SG1 = 1)” value: 0.2 fold for the first, 0.16 fold for the second.

First: B15
Second: B16
The “KD fold (SG1 = 1)” value of the first is lower: 0.35 fold for the first, 0.41 fold for the second.

First: B17
Second: B18
The “KD fold (SG1 = 1)” value of the first is higher: 0.55 fold for the first, 0.16 fold for the second.

Compared with B19, B20 is lower in “KD fold (SG1 = 1)” value: 0.19 fold for the first, 0.05 fold for the second.

Compared with B21, B22 is lower in “KD fold (SG1 = 1)” value: 0.09 fold for the first, 0.04 fold for the second.

First: B23
Second: B24
The “KD fold (SG1 = 1)” value of the first is lower: 0.3 fold for the first, 1.29 fold for the second.

First: B25
Second: B26
The “KD fold (SG1 = 1)” value of the first is lower: 0.24 fold for the first, 0.3 fold for the second.

Compared with B27, B28 is lower in “KD fold (SG1 = 1)” value: 0.49 fold for the first, 0.15 fold for the second.

Going from B29 to B30, the “KD fold (SG1 = 1)” value falls from 2.57 fold to 0.33 fold.

From patent publication US20200317768A1 (published 2020)
